How the values were obtained:
[1] = target: T1, human B7H4 on the cell surface (human, UniProt Q7Z7D3 25-282); experiment: FACS, SK-BR-3 cells
T1 construct: whole, on cells; also called CHOK1/hu B7H4; B7H4 on SK-BR-3
T1 sequence (looked up): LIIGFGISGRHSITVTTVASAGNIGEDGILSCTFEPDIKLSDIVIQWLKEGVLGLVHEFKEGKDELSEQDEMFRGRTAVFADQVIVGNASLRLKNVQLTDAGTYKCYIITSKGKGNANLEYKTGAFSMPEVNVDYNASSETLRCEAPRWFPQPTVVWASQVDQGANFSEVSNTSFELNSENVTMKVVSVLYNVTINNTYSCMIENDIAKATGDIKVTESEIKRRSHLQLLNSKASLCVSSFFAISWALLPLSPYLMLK
Procedure: (§1) This example is intended to investigate the in vitro binding activity of anti-human B7H4 H2L2 monoclonal antibody to human/cynomolgus monkey/mouse B7H4. Antibody binding experiments at the cellular level were performed using CHOK1 cell line overexpressing human B7H4 (CHOK1/hu B7H4, Harbour BioMed), CHOK1 cell line overexpressing cynomolgus monkey B7H4 (CHOK1/cyno B7H4, Harbour BioMed), CHOK1 cell line overexpressing mouse B7H4 (CHOK1/m B7H4, Harbour BioMed) and SK-BR-3 cell line (ATCC® HTB-30) highly expressing human B7H4. Briefly, CHOK1/hu B7H4 cells, CHOK1/cyno B7H4 cells, CHOK1/m B7H4 cells or SK-BR-3 cells were digested and resuspended with PBS containing 2% BSA. The cell density was adjusted to 1×10⁶ cells/mL. The cells were seeded in a 96-well V-bottom plate (Corning, #3894) at 100 μL/well, followed by the addition of test antibodies diluted in a 3-fold concentration gradient of 2 times the final concentration, each at 100 μL/well. The cells were incubated at 4° C. for 2 h away from light. Thereafter, the cells in each well were rinsed twice with 100 μL of pre-cooled PBS containing 2% BSA, and centrifuged at 500 g at 4° C. for 5 min, and then the supernatant was discarded. […] Finally, the cells in each well were resuspended with 200 μL of pre-cooled PBS containing 2% BSA, and the fluorescence signal values were read using an ACEA Novocyte3000 flow cytometer.

[2] = target: T2, mouse B7H4 on the cell surface (mouse, UniProt Q7TSP5 25-257); experiment: FACS, CHOK1/m B7H4 cells
T2 construct: whole, on cells; also called CHOK1/m B7H4
T2 sequence (looked up): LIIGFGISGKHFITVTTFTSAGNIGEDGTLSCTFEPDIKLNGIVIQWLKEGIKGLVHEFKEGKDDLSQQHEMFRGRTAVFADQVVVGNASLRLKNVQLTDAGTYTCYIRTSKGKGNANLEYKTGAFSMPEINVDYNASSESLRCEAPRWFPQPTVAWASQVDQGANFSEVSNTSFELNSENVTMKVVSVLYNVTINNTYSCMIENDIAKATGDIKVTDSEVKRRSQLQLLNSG
Procedure: as §1

[3] = target: T1, human B7H4 on the cell surface; experiment: FACS, CHOK1/hu B7H4 cells
Procedure: This example is intended to investigate the in vitro binding activity of anti-human B7H4 H2L2 monoclonal antibody to human/cynomolgus monkey/mouse B7H4. Antibody binding experiments at the cellular level were performed using CHOK1 cell line overexpressing human B7H4 (CHOK1/hu B7H4, Harbour BioMed), CHOK1 cell line overexpressing cynomolgus monkey B7H4 (CHOK1/cyno B7H4, Harbour BioMed), CHOK1 cell line overexpressing mouse B7H4 (CHOK1/m B7H4, Harbour BioMed) and SK-BR-3 cell line (ATCC® HTB-30) highly expressing human B7H4. Briefly, CHOK1/hu B7H4 cells, CHOK1/cyno B7H4 cells, CHOK1/m B7H4 cells or SK-BR-3 cells were digested and resuspended with PBS containing 2% BSA. The cell density was adjusted to 1×10⁶ cells/mL. The cells were seeded in a 96-well V-bottom plate (Corning, #3894) at 100 μL/well, followed by the addition of test antibodies diluted in a 3-fold concentration gradient of 2 times the final concentration, each at 100 μL/well. The cells were incubated at 4° C. for 2 h away from light. Thereafter, the cells in each well were rinsed twice with 100 μL of pre-cooled PBS containing 2% BSA, and centrifuged at 500 g at 4° C. for 5 min, and then the supernatant was discarded. Then 100 μL of a fluorescent secondary antibody (Alexa Fluor 488-conjugated AffiniPure Goat Anti-Human IgG, Fcγ Fragment Specific, Jackson, #109-545-098, 1:500 diluted) was added to each well. The plate was incubated away from light at 4° C. for 1 h. The cells in each well were washed twice with 100 μL of pre-cooled PBS containing 2% BSA, and centrifuged at 500 g at 4° C. for 5 minutes, and then the supernatant was discarded. Finally, the cells in each well were resuspended with 200 μL of pre-cooled PBS containing 2% BSA, and the fluorescence signal values were read using an ACEA Novocyte3000 flow cytometer.

[4] = target: T1, human B7H4 on the cell surface; experiment: FACS on MDA-MB-468 cells
[5] = target: T3, B7-H4 (Acro Biosystems, #B74-H82E2) (UniProt Q7Z7D3 29-258); experiment: BLI epitope competition; 1st Ab = row; competitor (2nd Ab) PR002421; inhibition of the 2nd Ab signal
T3 construct: Bought protein; also called B7-H4 captured on SA sensor
T3 sequence (looked up): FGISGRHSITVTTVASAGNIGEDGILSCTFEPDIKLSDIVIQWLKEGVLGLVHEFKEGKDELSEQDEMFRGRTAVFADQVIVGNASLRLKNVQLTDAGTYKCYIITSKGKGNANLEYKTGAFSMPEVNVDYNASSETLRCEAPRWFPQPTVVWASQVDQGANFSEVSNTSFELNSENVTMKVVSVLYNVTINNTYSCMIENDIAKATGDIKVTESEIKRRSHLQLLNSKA
Procedure: (§2) Step one, acquisition of 100% signal of antibodies: B7-H4 (Acro Biosystems, #B74-H82E2-200 μg) was captured at a capture height of 0.25 nm using an SA sensor (Fortebio, #18-5019). The sensor was equilibrated in a buffer for 120 s and then immersed in each antibody diluted to 100 nM for 240 s, and the final signal of the antibody binding to B7-H4 was recorded as the 100% signal of the antibody. Step two, epitope competition experiment: B7-H4 was captured using an SA sensor at a capture height of 0.25 nm. The sensor was immersed in a primary antibody (at a concentration of 100 nM) for 240 s, and then the SA sensor was immersed in a mixture of the primary and secondary antibodies (both at a final concentration of 100 nM) for 240 s, and the difference in signals after immersion of the sensor in the antibody mixture was recorded as the signal of the antibody as the secondary antibody. The inhibition rate was calculated according to the following formula: […]

[6] = target: T3, B7-H4 (Acro Biosystems, #B74-H82E2); experiment: BLI epitope competition; 1st Ab = row; competitor (2nd Ab) Control antibody 1; inhibition of the 2nd Ab signal
Procedure: as §2

[7] = target: T1, human B7H4 on the cell surface; experiment: FACS on MDA-MB-468 cells; in the drawn table the number stands under the head 'Maximum MFI' (the two heads are interchanged); the head says nM, the axis of the curve µg/mL

B1: Control antibody 1 (PR000157) (antibody, V domains shown)
VH: EVQLVQSGAEVKKPGASVKVSCKASGYTFTSYWIGWVRQAPGQGLEWIGDIYPGGGYTNYNEKFKGRVTITRDTSTSTAYLELSSLRSEDTAVYYCARLAGSSYRGAMDSWGQGTLVTVSS
VL: DIQMTQSPSSLSASVGDRVTITCKASQGFNKYVAWYQQKPGKAPKLLIYYTSTLQPGVPSRFSGSGSGRDYTLTISSLQPEDFATYYCLQYGDLLYAFGQGTKVEIKR
notes: Anti-B7H4 IgG1 control antibody from WO2016040724A1; also called 1D11.v1.9varC2
B1 was tested, and the EC50 [1] was 1.2 nM, the “Maximum MFI” value [1] was 266000 MFI and the EC50 [2] was 1.73 nM. The “Maximum MFI” value [2] was 1.75e+06 MFI, the EC50 [3] was 1.94 nM and the “Maximum MFI” value [3] was 1.84e+06 MFI. For the same binder, the “EC50 (read off the curve)” value [4] was ~0.2 µg/mL, the “Competitive inhibition rate (%)” value [5] was 1.97% and the “Competitive inhibition rate (%)” value [6] was 95.3%. For the same binder, the EC50 [7] was 0.194 nM.

From patent publication US20230312722A1 (NONA BIOSCIENCES SUZHOU, published 2023)
